Reference: patent US20180155451A1 (published 2018)

B1: GpH7-A5/GpH7-B3 variant (T335_15Y)/GpL16-k0 (antibody, human IgG1, kappa)
heavy 1: not shown
heavy 2: not shown
light: DIVMTQSPLSLPVTPGEPASISCQASESLVHSNRNTYLHWYLQKPGQSPQLLIYKVSNRFSGVPDRFSGSGSGTDFTLKISRVEAEDVGVYYCSQNTHVPPTFGQGTKVEIERTVAAPSVFIFPPSDEQLKSGTASVVCLLNNFYPREAKVQWKVDNALQSGNSQESVTEQDSKDSTYSLSSTLTLSKADYEKHKVYACEVTHQGLSSPVTKSFNRGEC
notes: Heterodimerized; only the B3 chain altered; also called He Ab T335_15Y
B2: GpH7-A5/GpH7-B3 variant (T335_16H)/GpL16-k0 (antibody, human IgG1, kappa)
heavy 1: not shown
heavy 2: not shown
light: DIVMTQSPLSLPVTPGEPASISCQASESLVHSNRNTYLHWYLQKPGQSPQLLIYKVSNRFSGVPDRFSGSGSGTDFTLKISRVEAEDVGVYYCSQNTHVPPTFGQGTKVEIERTVAAPSVFIFPPSDEQLKSGTASVVCLLNNFYPREAKVQWKVDNALQSGNSQESVTEQDSKDSTYSLSSTLTLSKADYEKHKVYACEVTHQGLSSPVTKSFNRGEC
notes: Heterodimerized; only the B3 chain altered; also called He Ab T335_16H
B3: GpH7-A5/GpH7-B3 variant (T335_18N)/GpL16-k0 (antibody, human IgG1, kappa)
heavy 1: not shown
heavy 2: not shown
light: DIVMTQSPLSLPVTPGEPASISCQASESLVHSNRNTYLHWYLQKPGQSPQLLIYKVSNRFSGVPDRFSGSGSGTDFTLKISRVEAEDVGVYYCSQNTHVPPTFGQGTKVEIERTVAAPSVFIFPPSDEQLKSGTASVVCLLNNFYPREAKVQWKVDNALQSGNSQESVTEQDSKDSTYSLSSTLTLSKADYEKHKVYACEVTHQGLSSPVTKSFNRGEC
notes: Heterodimerized; only the B3 chain altered; also called He Ab T335_18N
B4: GpH7-A5/GpH7-B3 variant (T335_19Q)/GpL16-k0 (antibody, human IgG1, kappa)
heavy 1: not shown
heavy 2: not shown
light: DIVMTQSPLSLPVTPGEPASISCQASESLVHSNRNTYLHWYLQKPGQSPQLLIYKVSNRFSGVPDRFSGSGSGTDFTLKISRVEAEDVGVYYCSQNTHVPPTFGQGTKVEIERTVAAPSVFIFPPSDEQLKSGTASVVCLLNNFYPREAKVQWKVDNALQSGNSQESVTEQDSKDSTYSLSSTLTLSKADYEKHKVYACEVTHQGLSSPVTKSFNRGEC
notes: Heterodimerized; only the B3 chain altered; also called He Ab T335_19Q
B5: GpH7-A5/GpH7-B3 variant (T335_20W)/GpL16-k0 (antibody, human IgG1, kappa)
heavy 1: not shown
heavy 2: not shown
light: DIVMTQSPLSLPVTPGEPASISCQASESLVHSNRNTYLHWYLQKPGQSPQLLIYKVSNRFSGVPDRFSGSGSGTDFTLKISRVEAEDVGVYYCSQNTHVPPTFGQGTKVEIERTVAAPSVFIFPPSDEQLKSGTASVVCLLNNFYPREAKVQWKVDNALQSGNSQESVTEQDSKDSTYSLSSTLTLSKADYEKHKVYACEVTHQGLSSPVTKSFNRGEC
notes: Heterodimerized; only the B3 chain altered; also called He Ab T335_20W
B6: GpH7-A5/GpH7-B3 variant (Y296_06M)/GpL16-k0 (antibody, human IgG1, kappa)
heavy 1: not shown
heavy 2: not shown
light: DIVMTQSPLSLPVTPGEPASISCQASESLVHSNRNTYLHWYLQKPGQSPQLLIYKVSNRFSGVPDRFSGSGSGTDFTLKISRVEAEDVGVYYCSQNTHVPPTFGQGTKVEIERTVAAPSVFIFPPSDEQLKSGTASVVCLLNNFYPREAKVQWKVDNALQSGNSQESVTEQDSKDSTYSLSSTLTLSKADYEKHKVYACEVTHQGLSSPVTKSFNRGEC
notes: Heterodimerized; only the B3 chain altered; also called He Ab Y296_06M
B7: GpH7-A5/GpH7-B3 variant (Y296_11K)/GpL16-k0 (antibody, human IgG1, kappa)
heavy 1: not shown
heavy 2: not shown
light: DIVMTQSPLSLPVTPGEPASISCQASESLVHSNRNTYLHWYLQKPGQSPQLLIYKVSNRFSGVPDRFSGSGSGTDFTLKISRVEAEDVGVYYCSQNTHVPPTFGQGTKVEIERTVAAPSVFIFPPSDEQLKSGTASVVCLLNNFYPREAKVQWKVDNALQSGNSQESVTEQDSKDSTYSLSSTLTLSKADYEKHKVYACEVTHQGLSSPVTKSFNRGEC
notes: Heterodimerized; only the B3 chain altered; also called He Ab Y296_11K
B8: GpH7-A5/GpH7-B3 variant (Y296_12R)/GpL16-k0 (antibody, human IgG1, kappa)
heavy 1: not shown
heavy 2: not shown
light: DIVMTQSPLSLPVTPGEPASISCQASESLVHSNRNTYLHWYLQKPGQSPQLLIYKVSNRFSGVPDRFSGSGSGTDFTLKISRVEAEDVGVYYCSQNTHVPPTFGQGTKVEIERTVAAPSVFIFPPSDEQLKSGTASVVCLLNNFYPREAKVQWKVDNALQSGNSQESVTEQDSKDSTYSLSSTLTLSKADYEKHKVYACEVTHQGLSSPVTKSFNRGEC
notes: Heterodimerized; only the B3 chain altered; also called He Ab Y296_12R
B9: GpH7-A5/GpH7-B3 variant (Y296_16H)/GpL16-k0 (antibody, human IgG1, kappa)
heavy 1: not shown
heavy 2: not shown
light: DIVMTQSPLSLPVTPGEPASISCQASESLVHSNRNTYLHWYLQKPGQSPQLLIYKVSNRFSGVPDRFSGSGSGTDFTLKISRVEAEDVGVYYCSQNTHVPPTFGQGTKVEIERTVAAPSVFIFPPSDEQLKSGTASVVCLLNNFYPREAKVQWKVDNALQSGNSQESVTEQDSKDSTYSLSSTLTLSKADYEKHKVYACEVTHQGLSSPVTKSFNRGEC
notes: Heterodimerized; only the B3 chain altered; also called He Ab Y296_16H
B10: GpH7-A5/GpH7-B3 variant (Y296_20W)/GpL16-k0 (antibody, human IgG1, kappa)
heavy 1: not shown
heavy 2: not shown
light: DIVMTQSPLSLPVTPGEPASISCQASESLVHSNRNTYLHWYLQKPGQSPQLLIYKVSNRFSGVPDRFSGSGSGTDFTLKISRVEAEDVGVYYCSQNTHVPPTFGQGTKVEIERTVAAPSVFIFPPSDEQLKSGTASVVCLLNNFYPREAKVQWKVDNALQSGNSQESVTEQDSKDSTYSLSSTLTLSKADYEKHKVYACEVTHQGLSSPVTKSFNRGEC
notes: Heterodimerized; only the B3 chain altered; also called He Ab Y296_20W
B11: GpH7-A5/GpH7-B3 variant (Y300_02A)/GpL16-k0 (antibody, human IgG1, kappa)
heavy 1: not shown
heavy 2: not shown
light: DIVMTQSPLSLPVTPGEPASISCQASESLVHSNRNTYLHWYLQKPGQSPQLLIYKVSNRFSGVPDRFSGSGSGTDFTLKISRVEAEDVGVYYCSQNTHVPPTFGQGTKVEIERTVAAPSVFIFPPSDEQLKSGTASVVCLLNNFYPREAKVQWKVDNALQSGNSQESVTEQDSKDSTYSLSSTLTLSKADYEKHKVYACEVTHQGLSSPVTKSFNRGEC
notes: Heterodimerized; only the B3 chain altered; also called He Ab Y300_02A
B12: GpH7-A5/GpH7-B3 variant (Y300_03V)/GpL16-k0 (antibody, human IgG1, kappa)
heavy 1: not shown
heavy 2: not shown
light: DIVMTQSPLSLPVTPGEPASISCQASESLVHSNRNTYLHWYLQKPGQSPQLLIYKVSNRFSGVPDRFSGSGSGTDFTLKISRVEAEDVGVYYCSQNTHVPPTFGQGTKVEIERTVAAPSVFIFPPSDEQLKSGTASVVCLLNNFYPREAKVQWKVDNALQSGNSQESVTEQDSKDSTYSLSSTLTLSKADYEKHKVYACEVTHQGLSSPVTKSFNRGEC
notes: Heterodimerized; only the B3 chain altered; also called He Ab Y300_03V
B13: GpH7-A5/GpH7-B3 variant (Y300_06M)/GpL16-k0 (antibody, human IgG1, kappa)
heavy 1: not shown
heavy 2: not shown
light: DIVMTQSPLSLPVTPGEPASISCQASESLVHSNRNTYLHWYLQKPGQSPQLLIYKVSNRFSGVPDRFSGSGSGTDFTLKISRVEAEDVGVYYCSQNTHVPPTFGQGTKVEIERTVAAPSVFIFPPSDEQLKSGTASVVCLLNNFYPREAKVQWKVDNALQSGNSQESVTEQDSKDSTYSLSSTLTLSKADYEKHKVYACEVTHQGLSSPVTKSFNRGEC
notes: Heterodimerized; only the B3 chain altered; also called He Ab Y300_06M
B14: GpH7-A5/GpH7-B3 variant (Y300_08L)/GpL16-k0 (antibody, human IgG1, kappa)
heavy 1: not shown
heavy 2: not shown
light: DIVMTQSPLSLPVTPGEPASISCQASESLVHSNRNTYLHWYLQKPGQSPQLLIYKVSNRFSGVPDRFSGSGSGTDFTLKISRVEAEDVGVYYCSQNTHVPPTFGQGTKVEIERTVAAPSVFIFPPSDEQLKSGTASVVCLLNNFYPREAKVQWKVDNALQSGNSQESVTEQDSKDSTYSLSSTLTLSKADYEKHKVYACEVTHQGLSSPVTKSFNRGEC
notes: Heterodimerized; only the B3 chain altered; also called He Ab Y300_08L
B15: GpH7-A5/GpH7-B3 variant (Y300_11K)/GpL16-k0 (antibody, human IgG1, kappa)
heavy 1: not shown
heavy 2: not shown
light: DIVMTQSPLSLPVTPGEPASISCQASESLVHSNRNTYLHWYLQKPGQSPQLLIYKVSNRFSGVPDRFSGSGSGTDFTLKISRVEAEDVGVYYCSQNTHVPPTFGQGTKVEIERTVAAPSVFIFPPSDEQLKSGTASVVCLLNNFYPREAKVQWKVDNALQSGNSQESVTEQDSKDSTYSLSSTLTLSKADYEKHKVYACEVTHQGLSSPVTKSFNRGEC
notes: Heterodimerized; only the B3 chain altered; also called He Ab Y300_11K
B16: GpH7-A5/GpH7-B3 variant (Y300_13S)/GpL16-k0 (antibody, human IgG1, kappa)
heavy 1: not shown
heavy 2: not shown
light: DIVMTQSPLSLPVTPGEPASISCQASESLVHSNRNTYLHWYLQKPGQSPQLLIYKVSNRFSGVPDRFSGSGSGTDFTLKISRVEAEDVGVYYCSQNTHVPPTFGQGTKVEIERTVAAPSVFIFPPSDEQLKSGTASVVCLLNNFYPREAKVQWKVDNALQSGNSQESVTEQDSKDSTYSLSSTLTLSKADYEKHKVYACEVTHQGLSSPVTKSFNRGEC
notes: Heterodimerized; only the B3 chain altered; also called He Ab Y300_13S
B17: GpH7-A5/GpH7-B3 variant (Y300_14T)/GpL16-k0 (antibody, human IgG1, kappa)
heavy 1: not shown
heavy 2: not shown
light: DIVMTQSPLSLPVTPGEPASISCQASESLVHSNRNTYLHWYLQKPGQSPQLLIYKVSNRFSGVPDRFSGSGSGTDFTLKISRVEAEDVGVYYCSQNTHVPPTFGQGTKVEIERTVAAPSVFIFPPSDEQLKSGTASVVCLLNNFYPREAKVQWKVDNALQSGNSQESVTEQDSKDSTYSLSSTLTLSKADYEKHKVYACEVTHQGLSSPVTKSFNRGEC
notes: Heterodimerized; only the B3 chain altered; also called He Ab Y300_14T
B18: GpH7-A5/GpH7-B3 variant (Y300_19Q)/GpL16-k0 (antibody, human IgG1, kappa)
heavy 1: not shown
heavy 2: not shown
light: DIVMTQSPLSLPVTPGEPASISCQASESLVHSNRNTYLHWYLQKPGQSPQLLIYKVSNRFSGVPDRFSGSGSGTDFTLKISRVEAEDVGVYYCSQNTHVPPTFGQGTKVEIERTVAAPSVFIFPPSDEQLKSGTASVVCLLNNFYPREAKVQWKVDNALQSGNSQESVTEQDSKDSTYSLSSTLTLSKADYEKHKVYACEVTHQGLSSPVTKSFNRGEC
notes: Heterodimerized; only the B3 chain altered; also called He Ab Y300_19Q
B19: GpH7-A5/GpH7-B3 variant (Y300_20W)/GpL16-k0 (antibody, human IgG1, kappa)
heavy 1: not shown
heavy 2: not shown
light: DIVMTQSPLSLPVTPGEPASISCQASESLVHSNRNTYLHWYLQKPGQSPQLLIYKVSNRFSGVPDRFSGSGSGTDFTLKISRVEAEDVGVYYCSQNTHVPPTFGQGTKVEIERTVAAPSVFIFPPSDEQLKSGTASVVCLLNNFYPREAKVQWKVDNALQSGNSQESVTEQDSKDSTYSLSSTLTLSKADYEKHKVYACEVTHQGLSSPVTKSFNRGEC
notes: Heterodimerized; only the B3 chain altered; also called He Ab Y300_20W

molecular target: T1, FcγRIa extracellular domain with C-terminal His tag (human, UniProt P12314 16-292); assay: SPR (Biacore), captured antibody, FcγRIa analyte; relative to GpH7-A5/GpH7-B3/GpL16-k0 = 100
T1 construct: extracellular domain; Expressed in FreeStyle293 cells; used as analyte in Biacore; also called FcgRI; 1a; not shown: His tag at the C terminus
T1 sequence (P12314 16-292): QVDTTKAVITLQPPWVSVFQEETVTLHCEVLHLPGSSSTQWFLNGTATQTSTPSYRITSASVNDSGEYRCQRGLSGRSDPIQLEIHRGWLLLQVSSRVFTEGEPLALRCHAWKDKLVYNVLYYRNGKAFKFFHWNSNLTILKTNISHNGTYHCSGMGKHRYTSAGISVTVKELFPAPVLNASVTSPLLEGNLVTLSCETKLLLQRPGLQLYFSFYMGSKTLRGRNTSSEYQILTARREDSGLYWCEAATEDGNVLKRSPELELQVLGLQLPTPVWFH

Row | He/Con_1a | Binder
1 | 107 % of control | B1
2 | 106 % of control | B2
3 | 106 % of control | B3
4 | 105 % of control | B4
5 | 106 % of control | B5
6 | 104 % of control | B6
7 | 105 % of control | B7
8 | 106 % of control | B8
9 | 106 % of control | B9
10 | 111 % of control | B10
11 | 112 % of control | B11
12 | 117 % of control | B12
13 | 112 % of control | B13
14 | 113 % of control | B14
15 | 107 % of control | B15
16 | 111 % of control | B16
17 | 112 % of control | B17
18 | 112 % of control | B18
19 | 112 % of control | B19
